Literature values, collected in publication PMC6181577.

Target: UBQLN2 UBA (Homo sapiens) (UniProt Q9UHD9)
Sequence (Q9UHD9 578-624): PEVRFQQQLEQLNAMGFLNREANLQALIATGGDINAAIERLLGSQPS

Sequence of UBQLN2 UBL (Q9UHD9 33-107): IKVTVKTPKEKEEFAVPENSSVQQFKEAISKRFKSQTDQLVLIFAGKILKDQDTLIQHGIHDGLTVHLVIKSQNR

- Kd: 175 µM
Substance: UBQLN2 UBL (from UniProt Q9UHD9)
